In paper PMC10500007 one finds Kd, koff and kon data, which are given here for 1 substance.

Some targets named below: av6_3 E13TG64R; av6_3 E13TM15RA39K; av6_3 G64R; av6_3 A39K; av6_3 M15RG64R; av6_3 E13TM15RA39KG64R; av6_3 M15R.
What all share (test): BLI; Octet RED96; His-tagged or Avi-tagged minibinder immobilised on Ni-NTA or streptavidin tips, dipped into titrations of integrin; association 900 s, dissociation 1200 s

pKd: −log10 of the molar value.

av6_3 E13TM15RA39KG64R, sequence (main, as listed by the source): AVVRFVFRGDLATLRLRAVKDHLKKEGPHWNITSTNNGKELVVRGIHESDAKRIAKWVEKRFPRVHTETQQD
av6_3 E13TM15RA39K, sequence (main, as listed by the source): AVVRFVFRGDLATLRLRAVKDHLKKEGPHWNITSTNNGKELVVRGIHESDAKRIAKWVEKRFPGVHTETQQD
av6_3 E13TG64R, sequence (main, as listed by the source): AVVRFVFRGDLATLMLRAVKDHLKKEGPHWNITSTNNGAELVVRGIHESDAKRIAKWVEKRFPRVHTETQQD
av6_3 A39K, sequence (main, as listed by the source A39K): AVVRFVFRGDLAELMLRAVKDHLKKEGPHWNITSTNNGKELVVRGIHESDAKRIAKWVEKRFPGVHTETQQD
av6_3 G64R, sequence (main, as listed by the source G64R): as the sequence (main, as listed by the source A39K) above, with K39A, G64R counted along it
av6_3 M15R, sequence (main, as listed by the source M15R): as the sequence (main, as listed by the source A39K) above, with M15R, K39A counted along it
av6_3 M15RG64R, sequence (main, as listed by the source): as the sequence (main, as listed by the source A39K) above, with M15R, K39A, G64R counted along it

What is called pKd is the Kd on a negative log10 scale, so that one unit is a factor of ten. A lower pKd goes with a large Kd. In general, koff refers to the first-order rate constant of dissociation. Read a high koff as fast dissociation. One may read the kon as the rate constant with which the complex forms. A lower kon goes with slow association. With “human integrin αvβ6 (soluble, BLI analyte) (from UniProt P06756 31-1048; P18564 22-709) (receptor)”, the pKd in the test with av6_3 E13TG64R is 9.10; with av6_3 E13TM15RA39K it was 8.97; with av6_3 G64R, 9.02; in the test with av6_3 A39K it was 9.19; with av6_3 M15RG64R, 9.13; with av6_3 E13TM15RA39KG64R it was 9.10. Besides, the pKd with av6_3 M15R was 9.42. Also, the koff is 8.87e-05 s⁻¹ with av6_3 E13TG64R; 9.1e-05 s⁻¹ in the test with av6_3 E13TM15RA39K; 0.000134 s⁻¹ with av6_3 G64R; 8.16e-05 s⁻¹ with av6_3 A39K; 7.71e-05 s⁻¹ with av6_3 M15RG64R; 8.31e-05 s⁻¹ in the test with av6_3 E13TM15RA39KG64R. Also, in the test with av6_3 M15R, the koff turned out to be 6.65e-05 s⁻¹. The kon with av6_3 E13TG64R was 112000 M⁻¹ s⁻¹; in the test with av6_3 E13TM15RA39K, 84300 M⁻¹ s⁻¹; with av6_3 G64R, 141000 M⁻¹ s⁻¹; with av6_3 A39K, 127000 M⁻¹ s⁻¹; with av6_3 M15RG64R it was 104000 M⁻¹ s⁻¹; with av6_3 E13TM15RA39KG64R, 104000 M⁻¹ s⁻¹. This substance registered a kon in the test with av6_3 M15R of 175000 M⁻¹ s⁻¹.
